Experimental data: US20180155425A1 (ZONHON BIOPHARMA INSTITUTE, published 2018)

B1: ZHB BsAb-2 (bispecific antibody)
chain: DILLTQSPSSLSATPGERATITCRASQGIRNNLNWYQQKPGQAPRLLIYYSSNLQSGVPSRFSGSGSGTDFTLTISRLQPEDVAAYYCQQSIKLPFTFGSGTKVEIKGGGGSGGGGSGGGGSEVQLVESGAGVKQPGGTLRLTCTASGFSLTTYGVHWVRQAPGKGLEWVGVIWGDGRTDYDAAFMSRVTISKDTSKSTVYLQMNSLRAEDTAVYYCMRNRHDWFDYWGQGTTVTVSSGGGGSDVQLVQSGAEVKKPGASVKVSCKASGYTFTRYTMHWVRQAPGQGLEWIGYINPSRGYTNYADSVKGRFTITTDKSTSTAYMELSSLRSEDTATYYCARYYDDHYCLDYWGQGTTVTVSSGEGTSTGSGGSGGSGGADDIVLTQSPATLSLSPGERATLSCRASQSVSYMNWYQQKPGKAPKRWIYDTSKVASGVPARFSGSGSGTDYSLTINSLEAEDAATYYCQQWSSNPLTFGGGTKVEIK
notes: Single-chain tandem scFv; detection on cells used an anti-His-tag antibody; also called anti-CD26×anti-CD3 bispecific antibody
B2: anti-CD26-scFv (scFv)
scFv: EVQLVESGAGVKQPGGTLRLTCTASGFSLTTYGVHWVRQAPGKGLEWVGVIWGDGRTDYDAAFMSRVTISKDTSKSTVYLQMNSLRAEDTAVYYCMRNRHDWFDYWGQGTTVTVSSGGGGSGGGGSGGGGSDILLTQSPSSLSATPGERATITCRASQGIRNNLNWYQQKPGQAPRLLIYYSSNLQSGVPSRFSGSGSGTDFTLTISRLQPEDVAAYYCQQSIKLPFTFGSGTKVEIKHHHHHH
notes: Expressed in Pichia pastoris; also called anti-CD26 single-chain antibody; parent single-chain antibody
B3: ZHB BsAb-4 (bispecific antibody)
chain: DVQLVQSGAEVKKPGASVKVSCKASGYTFTRYTMHWVRQAPGQGLEWIGYINPSRGYTNYADSVKGRFTITTDKSTSTAYMELSSLRSEDTATYYCARYYDDHYCLDYWGQGTTVTVSSGEGTSTGSGGSGGSGGADDIVLTQSPATLSLSPGERATLSCRASQSVSYMNWYQQKPGKAPKRWIYDTSKVASGVPARFSGSGSGTDYSLTINSLEAEDAATYYCQQWSSNPLTFGGGTKVEIKSGGGGSDILLTQSPSSLSATPGERATITCRASQGIRNNLNWYQQKPGQAPRLLIYYSSNLQSGVPSRFSGSGSGTDFTLTISRLQPEDVAAYYCQQSIKLPFTFGSGTKVEIKGGGGSGGGGSGGGGSEVQLVESGAGVKQPGGTLRLTCTASGFSLTTYGVHWVRQAPGKGLEWVGVIWGDGRTDYDAAFMSRVTISKDTSKSTVYLQMNSLRAEDTAVYYCMRNRHDWFDYWGQGTTVTVSS
notes: as for B1
B4: ZHB BsAb-1 (bispecific antibody)
chain: EVQLVESGAGVKQPGGTLRLTCTASGFSLTTYGVHWVRQAPGKGLEWVGVIWGDGRTDYDAAFMSRVTISKDTSKSTVYLQMNSLRAEDTAVYYCMRNRHDWFDYWGQGTTVTVSSGGGGSGGGGSGGGGSDILLTQSPSSLSATPGERATITCRASQGIRNNLNWYQQKPGQAPRLLIYYSSNLQSGVPSRFSGSGSGTDFTLTISRLQPEDVAAYYCQQSIKLPFTFGSGTKVEIKSGGGGSDVQLVQSGAEVKKPGASVKVSCKASGYTFTRYTMHWVRQAPGQGLEWIGYINPSRGYTNYADSVKGRFTITTDKSTSTAYMELSSLRSEDTATYYCARYYDDHYCLDYWGQGTTVTVSSGEGTSTGSGGSGGSGGADDIVLTQSPATLSLSPGERATLSCRASQSVSYMNWYQQKPGKAPKRWIYDTSKVASGVPARFSGSGSGTDYSLTINSLEAEDAATYYCQQWSSNPLTFGGGTKVEIK
notes: detection on cells used an anti-His-tag antibody; also called anti-CD26×anti-CD3 bispecific antibody
B5: ZHB BsAb-3 (bispecific antibody)
chain: DVQLVQSGAEVKKPGASVKVSCKASGYTFTRYTMHWVRQAPGQGLEWIGYINPSRGYTNYADSVKGRFTITTDKSTSTAYMELSSLRSEDTATYYCARYYDDHYCLDYWGQGTTVTVSSGEGTSTGSGGSGGSGGADDIVLTQSPATLSLSPGERATLSCRASQSVSYMNWYQQKPGKAPKRWIYDTSKVASGVPARFSGSGSGTDYSLTINSLEAEDAATYYCQQWSSNPLTFGGGTKVEIKSGGGGSEVQLVESGAGVKQPGGTLRLTCTASGFSLTTYGVHWVRQAPGKGLEWVGVIWGDGRTDYDAAFMSRVTISKDTSKSTVYLQMNSLRAEDTAVYYCMRNRHDWFDYWGQGTTVTVSSGGGGSGGGGSGGGGSDILLTQSPSSLSATPGERATITCRASQGIRNNLNWYQQKPGQAPRLLIYYSSNLQSGVPSRFSGSGSGTDFTLTISRLQPEDVAAYYCQQSIKLPFTFGSGTKVEIK
notes: as for B1

Molecular target: T1, human CD26 on the surfaces of tumor cells (human, UniProt P27487 1-766)
Test: cell-based or functional assay

Binder | Lysis rate (%) of 786-0 cells by T cells, antibody at 10^2 pg/mL [%] | Lysis rate (%) of 786-0 cells by T cells, antibody at 10^3 pg/mL [%] | Lysis rate (%) of 786-0 cells by T cells, antibody at 10^4 pg/mL [%] | Lysis rate (%) of 786-0 cells by T cells, antibody at 10^5 pg/mL [%]
B1 | 21.8 | 59.2 | 69.6 | 76.3
B2 | 10.8 | 9.6 | 10.9 | 7.5
B3 | 24.3 | 38.8 | 64.8 | 75.4

Molecular target: T1, human CD26 on the surfaces of tumor …
Test: flow cytometry on PC-3 cells, anti-His-tag-Alexa Fluor 488 detection

Binder | Binding rate [%]
B4 | 1.2
B1 | 42.8
B3 | 62.9
B5 | 0.1

Molecular target: T1, human CD26 on the surfaces of tumor …
Test: flow cytometry on Caki-1 cells, anti-His-tag-Alexa Fluor 488 detection

Binder | Binding rate [%]
B4 | 1.1
B1 | 49.9
B3 | 1.1
B5 | 1.2

Molecular target: T1, human CD26 on the surfaces of tumor …
Test: cell-based or functional assay
Remark: another data set of the same source

Binder | IC50 of T cell-mediated killing of 786-0 cells [ng/mL]
B1 | 1.39
B3 | 3.1

Molecular target: T1, human CD26 on the surfaces of tumor …
Test: cell-based or functional assay
Remark: another data set of the same source

Binder | Lysis (%) of 786-0 cells by PBMC, antibody at 10 ng/mL [%]
B4 | 15.9
B1 | 27.4
B2 | 4.1
B3 | 25.5
B5 | 4.3

Molecular target: T2, human CD3 on the surfaces of Jurkat cells / T cells (human, UniProt P07766 23-207; P09693 23-182; P04234 22-171)
T2 construct: whole, on cells; CD3 is endogenous on Jurkat cells and on enriched human T cells; also called CD3 molecules on the surfaces of Jurkat cells
Test: flow cytometry on Jurkat (CD3+) cells, antibody at 10 µg/mL, anti-His-tag-Alexa Fluor 488 detection
Experimental: Test method: Jurkat cells in the logarithmic growth phase were harvested by centrifugation at 1000 rpm for 5 min, and washed twice with PBS buffer. One portion of 1.0×10⁶ cells was re-suspended in 250 μL PBS buffer, and BsAb1, BsAb2, BsAb3, and BsAb4 were respectively added to give a final concentration of 10 μg/mL and incubated at room temperature for 1 hour. After incubation, the cells were washed twice with PBS, and then 250 μL of Anti-His-tag-Alexa Fluor 488 antibody that was 1:2000 diluted was added and incubated at room temperature for 1 hour. After incubation, the cells were washed thrice with PBS buffer, re-suspended in 300 μL PBS, and detected by flow cytometer.

Binder | binding rate to Jurkat cells [%]
B4 | 0.1
B1 | 92
B3 | 56.5
B5 | 0.2

Molecular target: T3, CD26 protein (UniProt P27487 39-766, limits assumed)
T3 construct: Soluble CD26 protein in the biolayer interferometry assay on AR2G sensors
Test: BLI, Fortebio Qke, AR2G amine reactive biosensor
Excerpt: Test method: The affinities of the bispecific antibodies to CD26 protein were detected by using the Molecular Interaction Instrument Fortebio Qke, following the instruction of operation of immersive readable Amine Reactive 2nd Generation Biosensor (Fortebio, AR2G).

Binder | Kd [nM]
B4 | 9.29
B1 | 3.44
B2 | 1
B3 | 1.97
B5 | 10

Molecular target: T1, human CD26 on the surfaces of tumor …
Test: flow cytometry on 786-0 cells, anti-His-tag-Alexa Fluor 488 detection
Experimental: (§1) Test method: 786-0 and NCI-H2452 cells in the logarithmic growth phase were trypsinized. The cells were harvested by centrifugation at 1000 rpm for 5 min, and washed twice with PBS buffer. One portion of 1.0×10⁶ cells was re-suspended in 250 μL PBS butler, and BsAb1, BsAb2, BsAb3, and BsAb4 were respectively added to give a final concentration of […] and incubated at room temperature for 1 hr. After incubation, the cells were washed twice with PBS buffer, and then 250 μL of Anti--His-tag-Alexa Fluor 488 antibody that was 1:2000 diluted was added and incubated at room temperature for 1 hr. After incubation, the cells were washed thrice with PBS, re-suspended in 300 μL PBS buffer, and detected by flow cytometer.

Binder | Binding rate [%]
B4 | 41.1
B1 | 99.6
B3 | 98
B5 | 9.4

Molecular target: T1, human CD26 on the surfaces of tumor …
Test: flow cytometry on COLO205 cells, anti-His-tag-Alexa Fluor 488 detection

Binder | Binding rate [%]
B4 | 0.1
B1 | 14
B3 | 0.2
B5 | 0.4

Molecular target: T1, human CD26 on the surfaces of tumor …
Test: flow cytometry on NCI-H2452 cells, anti-His-tag-Alexa Fluor 488 detection
Experimental: as §1

Binder | Binding rate [%]
B4 | 1.1
B1 | 71.8
B3 | 1.4
B5 | 0.7

Molecular target: T1, human CD26 on the surfaces of tumor …
Test: cell-based or functional assay
Remark: another data set of the same source

Binder | Lysis rate (%) of COLO205 cells by PBMC, antibody at 10 ng/mL [%] | Lysis rate (%) of Caki-1 cells by PBMC, antibody at 10 ng/mL [%] | Lysis rate (%) of NCI-H2452 cells by PBMC, antibody at 10 ng/mL [%] | Lysis rate (%) of PC-3 cells by PBMC, antibody at 10 ng/mL [%]
B4 | 1.7 | 0.3 | 0.2 | 45.4
B1 | 17 | 26.5 | 32.3 | 39.6
B3 | 5.4 | 0.9 | 0.5 | 53.1
B5 | 5.3 | 0.8 | 0.7 | 1.7
